# According to IntAct's records for PubMed 20581825:
# B1: Periplasmic serine endoprotease DegP (Escherichia coli (strain K12)), P0C0V0 (parent)
# chain: MKKTTLALSALALSLGLALSPLSATAAETSSATTAQQMPSLAPMLEKVMPSVVSINVEGSTTVNTPRMPRNFQQFFGDDSPFCQEGSPFQSSPFCQGGQGGNGGGQQQKFMALGSGVIIDADKGYVVTNNHVVDNATVIKVQLSDGRKFDAKMVGKDPRSDIALIQIQNPKNLTAIKMADSDALRVGDYTVAIGNPFGLGETVTSGIVSALGRSGLNAENYENFIQTDAAINRGNSGGALVNLNGELIGINTAILAPDGGNIGIGFAIPSNMVKNLTSQMVEYGQVKRGELGIMGTELNSELAKAMKVDAQRGAFVSQVLPNSSAAKAGIKAGDVITSLNGKPISSFAALRAQVGTMPVGSKLTLGLLRDGKQVNVNLELQQSSQNQVDSSSIFNGIEGAEMSNKGKDQGVVVNNVKTGTPAAQIGLKKGDVIIGANQQAVKNIAELRKVLDSKPSVLALNIQRGDSTIYLLMQ
# partner: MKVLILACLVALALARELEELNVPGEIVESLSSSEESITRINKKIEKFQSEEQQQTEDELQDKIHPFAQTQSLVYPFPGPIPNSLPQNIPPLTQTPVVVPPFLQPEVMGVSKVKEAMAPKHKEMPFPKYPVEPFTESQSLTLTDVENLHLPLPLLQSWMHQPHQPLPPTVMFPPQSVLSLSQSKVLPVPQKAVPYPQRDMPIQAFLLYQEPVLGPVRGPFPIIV
# Variants of: B1
# Settings: with casb_bovin CSN2, P02666
row,Variant,effect of a mutation on the interaction
1,MKKTTLALSALALSLGLALSPLSATAAETSSATTAQQMPSLAPMLEKVMPSVVSINVEGSTTVNTPRMPRNFQQFFGDDSPFCQEGSPFQSSPFCQGGQGGNGGGQQQKFMALGSGVIIDADKGYVVTNNHVVDNATVIKVQLSDGRKFDAKMVGKDPRSDIALIQIQNPKNLTAIKMADSDALRVGDYTVAIGNPFGLGETVTSGIVSALGASGLNAENYENFIQTDAAINRGNSGGALVNLNGELIGINTAILAPDGGNIGIGFAIPSNMVKNLTSQMVEYGQVKRGELGIMGTELNSELAKAMKVDAQRGAFVSQVLPNSSAAKAGIKAGDVITSLNGKPISSFAALRAQVGTMPVGSKLTLGLLRDGKQVNVNLELQQSSQNQVDSSSIFNGIEGAEMSNKGKDQGVVVNNVKTGTPAAQIGLKKGDVIIGANQQAVKNIAELRKVLDSKPSVLALNIQRGDSTIYLLMQ [R213A],disrupting interaction
2,MKKTTLALSALALSLGLALSPLSATAAETSSATTAQQMPSLAPMLEKVMPSVVSINVEGSTTVNTPRMPRNFQQFFGDDSPFCQEGSPFQSSPFCQGGQGGNGGGQQQKFMALGSGVIIDADKGYVVTNNHVVDNATVIKVQLSDGRKFDAKMVGKDPRSDIALIQIQNPKNLTAIKMADSDALRVGDYTVAIGNPFGLGETVTSGIVSALGRSGLNAENYENFIQTDAAINRGNSGGALVNLNGELIGINTAILAPDGGNIGIGFAIPSNMVKNLTSQMVEYGQVKRGELGIMGTELNSELAKAMKVDAQRGAFVSQVLPNSSAAKAGIKAGDVITSLNGKPISSFAALAAAVGTMPVGSKLTLGLLRDGKQVNVNLELQQSSQNQVDSSSIFNGIEGAEMSNKGKDQGVVVNNVKTGTPAAQIGLKKGDVIIGANQQAVKNIAELRKVLDSKPSVLALNIQRGDSTIYLLMQ [R351A;Q353A],decreasing interaction

# Variants of: B1
# Settings: with casb_bovin CSN2, P02666
# Remark: another data set of the same source
row,Variant,effect of a mutation on the interaction
1,MKKTTLALSALALSLGLALSPLSATAAETSSATTAQQMPSLAPMLEKVMPSVVSINVEGSTTVNTPRMPRNFQQFFGDDSPFCQEGSPFQSSPFCQGGQGGNGGGQQQKFMALGSGVIIDADKGYVVTNNHVVDNATVIKVQLSDGRKFDAKMVGKDPRSDIALIQIQNPKNLTAIKMADSDALRVGDYTVAIGNPFGLGETVTSGIVSALGRSGLNAENYENFIQTDAAINRGNSGGALVNLNGELIGINTAILAPDGGNIGIGFAIPSNMVKNLTSQMVEYGQVKRGELGIMGTELNSELAKAMKVDAQRGAFVSQVLPNSSAAKAGIKAGDVITSLNGKPISSFAALAAAVGTMPVGSKLTLGLLRDGKQVNVNLELQQSSQNQVDSSSIFNGIEGAEMSNKGKDQGVVVNNVKTGTPAAQIGLKKGDVIIGANQQAVKNIAELRKVLDSKPSVLALNIQRGDSTIYLLMQ [R351A;Q353A],disrupting interaction
2,MKKTTLALSALALSLGLALSPLSATAAETSSATTAQQMPSLAPMLEKVMPSVVSINVEGSTTVNTPRMPRNFQQFFGDDSPFCQEGSPFQSSPFCQGGQGGNGGGQQQKFMALGSGVIIDADKGYVVTNNHVVDNATVIKVQLSDGRKFDAKMVGKDPRSDIALIQIQNPKNLTAIKMADSDALRVGDYTVAIGNPFGLGETVTSGIVSALGRSGLNAENYENFIQTDAAINRGNSGGALVNLNGELIGINTAILAPDGGNIGIGFAIPSNMVKNLTSQMVEYGQVKRGEWGIMGTELNSELAKAMKVDAQRGAFVSQVLPNSSAAKAGIKAGDVITSLNGKPISSFAALRAQVGTMPVGSKLTLGLLRDGKQVNVNLELQQSSQNQVDSSSIFNGIEGAEMSNKGKDQGVVVNNVKTGTPAAQIGLKKGDVIIGANQQAVKNIAELRKVLDSKPSVLALNIQRGDSTIYLLMQ [L291W],disrupting interaction
